From patent publication US20250325630A1, “HOMODIMER FUSION PROTEINS FOR TREATING ATOPIC DERMATITIS” (Intervet Inc., priority 2021, published 2025)
Changes are numbered by the printed parent chain. Numbers in names are those of the source.

T1: canine IL-13 (cIL-13) (Canis lupus familiaris, UniProt Q9N0W9)
T1 sequence (Q9N0W9 19-131): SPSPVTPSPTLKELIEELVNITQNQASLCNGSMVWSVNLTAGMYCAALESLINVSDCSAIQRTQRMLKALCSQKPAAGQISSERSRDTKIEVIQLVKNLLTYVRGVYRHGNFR

B1: cIL-13Rα2-cFc-YD: cIL-13Rα2-cIgGB-Fc with L18Y/T22D half-life substitutions, SEQ ID NO: 13 (protein)
chain: SMLSNAEIKVNPPQDFEIVDPGYLGYLSLQWQPPLFPDNFKECTIEYELKYRNIDSENWKTIITKNLHYKDGFDLNKGIEAKINTLLPAQCTNGSEVRSSWAETTYWTSPQGNRETKIQDMDCVYYNWQYLVCSWKPGMGVHFDTNYQLFYWYEGLDHSAECTDYIKVNGKNMGCRFPYLESSDYKDFYICVNGSSESQPIRPSYFIFQLQNIVKPMPPDYLSLTVKNSEEINLKWNMPKGPIPAKCFIYEIEFTEDGTTWVTTTVENEIQITRTSNESQKLCFLVRSKVNIYCSDDGIWSEWSDEQCWKGDIWKETPKRENGRVPRPPDCPKCPAPEMLGGPSVFIFPPKPKDTLYIARDPEVTCVVVDLDPEDPEVQISWFVDGKQMQTAKTQPREEQFNGTYRVVSVLPIGHQDWLKGKQFTCKVNNKALPSPIERTISKARGQAHQPSVYVLPPSREELSKNTVSLTCLIKDFFPPDIDVEWQSNGQQEPESKYRTTPPQLDEDGSYFLYSKLSVDKSRWQRGDTFICAVMHEALHNHYTQESLSHSPGK
modifications: homodimer
B2: cIL-13Rα2-cFc-YTE: cIL-13Rα2-cIgGB-Fc with L18Y/A20T/T22E half-life substitutions, SEQ ID NO: 10 (protein)
chain: B1 chain with A359T, D361E
modifications: homodimer
B3: cIL-13Rα2-cFc: homodimer of canine IL-13Rα2 ECD, IgGB hinge region and IgGB cFc fusion protein, SEQ ID NO: 7 (protein)
chain: B1 chain with Y357L, D361T
modifications: homodimer
B4: cIL-13Rα1-cFc-YTE: cIL-13Rα1-cIgGB-Fc with L18Y/A20T/T22E half-life substitutions, SEQ ID NO: 9 (protein)
chain: GGVAAPTETQPPVTNLSVSVENLCTVIWTWDPPEGASPNCTLRYFSHFDNKQDKKIAPETHRSKEVPLNERICLQVGSQCSTNESDNPSILVEKCTPPPEGDPESAVTELQCVWHNLSYMKCTWLPGRNTSPDTNYTLYYWHSSLGKILQCEDIYREGQHIGCSFALTNLKDSSFEQHSVQIVVKDNAGKIRPSFNIVPLTSHVKPDPPHIKRLFFQNGNLYVQWKNPQNFYSRCLSYQVEVNNSQTETNDIFYVEEAKCQNSEFEGNLEGTICFMVPGVLPDTLNTVRIRVRTNKLCYEDDKLWSNWSQAMSIGENTDPTPKRENGRVPRPPDCPKCPAPEMLGGPSVFIFPPKPKDTLYITREPEVTCVVVDLDPEDPEVQISWFVDGKQMQTAKTQPREEQFNGTYRVVSVLPIGHQDWLKGKQFTCKVNNKALPSPIERTISKARGQAHQPSVYVLPPSREELSKNTVSLTCLIKDFFPPDIDVEWQSNGQQEPESKYRTTPPQLDEDGSYFLYSKLSVDKSRWQRGDTFICAVMHEALHNHYTQESLSHSPGK
modifications: homodimer

Target: T1, canine IL-13 (cIL-13)
Assay: Binding kinetics of cFc fusion proteins to canine IL-13 (OCTET HTX)
Conditions: for ka / kdis: Table 4, cIL-13; for ka: association rate constant; for kdis: dissociation rate constant
Protocol: The binding constants for the cFc fusion proteins provided in Tables 3 and 4 below, were determined using OCTET® HTX. All kinetics measurements were performed by OCTET® HTX using SA® biosensors and DATA ACQUISITION® 12.0 software. 10 μg/mL of biotin-labeled antigen, either canine IL-4 (cIL-4) or canine IL-13 (cIL-13) were loaded onto the SAR biosensors for 120 seconds. Next, the biosensors were placed into 1×pH 7.0 TBS/Casein buffer for 60 seconds for the blocking phase. For the association phase, antigen loaded biosensors were placed into 2-fold serial dilutions from 1 μM down to 15.6 nM of the wild-type, the bispecific, or the FcRn-mutant receptor Fc-fusions that recognized the cIL-4 or cIL-13 antigen in 1×pH 7.0 TBS/Casein buffer for 30 seconds. The last well was buffer alone and that sensor was used for reference sensor subtraction. Finally, the biosensors were placed into 1×pH 7.0 TBS/Casein buffer for 120 seconds for the dissociation phase. The results were then analyzed using Data Analysis 12.0 software and the curves were fitted using a 1:1 binding model.

| Molecule | ka | kdis | decrease in the affinity for cIL-13 relative to unmodified cIL-13Rα1-cFc | Kd (approximate values, read-out: binding constant (KD) with cIL-13) |
| --- | --- | --- | --- | --- |
| B1 | 1.15e+06 M⁻¹ s⁻¹ | 5.07e-07 s⁻¹ |  |  |
| B2 | 1.17e+06 M⁻¹ s⁻¹ | 5.04e-07 s⁻¹ |  |  |
| B3 | 1e+06 M⁻¹ s⁻¹ | 7.45e-07 s⁻¹ |  |  |
| B4 | 66500 M⁻¹ s⁻¹ | 0.0011 s⁻¹ | about 4 fold | 20 nM |
